Results as given in US20230265179A1 (TWIST BIOSCIENCE, published 2023).
Where a chain is given by its changes, count along the chain named.

T1: IL1RL2 over-expressed on Expi293 cells (UniProt Q9HB29 20-575, limits assumed)
T1 construct: whole, on cells; Target of the flow cytometry assay; MFI ratio is over-expressing cells over parent cells
T1 sequence (looked up): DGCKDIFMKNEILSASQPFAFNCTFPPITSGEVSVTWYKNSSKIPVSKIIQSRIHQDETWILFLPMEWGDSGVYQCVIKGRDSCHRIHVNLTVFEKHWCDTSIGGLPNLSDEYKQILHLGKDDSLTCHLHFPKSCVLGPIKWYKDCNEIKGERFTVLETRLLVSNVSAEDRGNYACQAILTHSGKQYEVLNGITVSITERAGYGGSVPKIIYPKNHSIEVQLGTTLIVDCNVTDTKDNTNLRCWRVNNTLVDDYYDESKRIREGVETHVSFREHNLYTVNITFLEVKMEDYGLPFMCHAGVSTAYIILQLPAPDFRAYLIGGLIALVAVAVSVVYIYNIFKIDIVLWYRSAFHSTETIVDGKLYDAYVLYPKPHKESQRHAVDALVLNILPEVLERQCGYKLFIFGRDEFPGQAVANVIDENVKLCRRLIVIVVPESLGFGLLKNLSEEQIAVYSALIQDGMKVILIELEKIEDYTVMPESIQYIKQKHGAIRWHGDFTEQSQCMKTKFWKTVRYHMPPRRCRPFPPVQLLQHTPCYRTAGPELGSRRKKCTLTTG

B1: TSLP-36 (VHH)
VHH: EVQLVESGGGLVQPGGSLRLSCAASGGTLDDYVMGWFRQAPGKEREFVGFIGSDGSTLYADSVKGRFTISADNSKNTAYLQMNSLKPEDTAVYYCTTEWDGYWGQGTLVTVSS
notes: VHH-Fc (IgG2 Fc); not shown: IgG2 Fc of the VHH-Fc format
B2: TSLP-3 (VHH)
VHH: EVQLVESGGGLVQPGGSLRLSCAASGRIFSTYFMGWFRQAPGKERELVSAIFSDGSTYYADSVKGRFTISADNSKNTAYLQMNSLKPEDTAVYYCALDLSTVRWGQGTLVTVSS
notes: as for B1
B3: TSLP-23 (VHH)
VHH: B2 VHH
notes: as for B1
B4: TSLP-35 (VHH)
VHH: B2 VHH with R27C, L99W, S100N, T101L, V102N
notes: as for B1
B5: TSLP-12 (VHH)
VHH: B2 VHH with R27F, T31S, F33W, L97I, L99W, S100Y, T101L, V102N, R103S
notes: as for B1
B6: TSLP-14 (VHH)
VHH: B2 VHH with R27S, T31S, F33W, L97K, L99Y, S100F, T101G, V102T, R103G
notes: as for B1
B7: TSLP-30 (VHH)
VHH: EVQLVESGGGLVQPGGSLRLSCAASGRTFSTYGMGWFRQAPGKEREFVAAMISWNGGSSTYYADSVKGRFTISADNSKNTAYLQMNSLKPEDTAVYYCTTDPAEFYDSSTYYPAPFDYWGQGTLVTVSS
notes: as for B1
B8: TSLP-38 (VHH)
VHH: EVQLVESGGGLVQPGGSLRLSCAASGFSLDYYAMGWFRQAPGKERELVSAIFSDGSALYADSVKGRFTISADNSKNTAYLQMNSLKPEDTAVYYCAKDRDTGIGAYDWGQGTLVTVSS
notes: as for B1
B9: TSLP-40 (VHH)
VHH: EVQLVESGGGLVQPGGSLRLSCAASGLTFSRYAMGWFRQAPGKEREFVSAIFSDGSTYYADSVKGRFTISADNSKNTAYLQMNSLKPEDTAVYYCARGPNWFDPWGQGTLVTVSS
notes: as for B1
B10: TSLP-16 (VHH)
VHH: EVQLVESGGGLVQPGGSLRLSCAASGFSLDDYAMGWFRQAPGKEREGVATIAGGYTYYADSVKGRFTISADNSKNTAYLQMNSLKPEDTAVYYCAAFDGYTGSDWGQGTLVTVSS
notes: not shown: IgG2 Fc of the VHH-Fc format
B11: TSLP-4 (VHH)
VHH: EVQLVESGGGLVQPGGSLRLSCAASGFTFSSYWMGWFRQAPGKERELVSAIFSDGSTMYADSVKGRFTISADNSKNTAYLQMNSLKPEDTAVYYCTRDSTDTRYWGQGTLVTVSS
notes: as for B1
B12: TSLP-10 (VHH)
VHH: EVQLVESGGGLVQPGGSLRLSCAASGFTLDDYVMGWFRQAPGKEREGVATIAGGGTYYADSVKGRFTISADNSKNTAYLQMNSLKPEDTAVYYCASSGSYYPGHFEWGQGTLVTVSS
notes: as for B1
B13: TSLP-121 (antibody, V domains shown)
VH: QVQLVQSGAEVKKPGSSVKVSCKASGGSFSSYAISWVRQAPGQGLEWMGGIIPMNYAQKFQGRVTITADESTSTAYMELSSLRSEDTAVYYCARQLAAALVYWGQGTLVTVSS
VL: EIVLTQSPGTLSLSPGERATLSCRASQNVNTRYLAWYQQKPGQAPRLLIYAASSRATGIPDRFSGSGSGTDFTLTISSLEPEDFAVYYCQQYESSPYNFGQGTKVEIK
B14: TSLP-9 (VHH)
VHH: EVQLVESGGGLVQPGGSLRLSCAASGPMSSSAVMGWFRQAPGKEREAVALGWSGGSTYYADSVKGRFTISADNSKNTAYLQMNSLKPEDTAVYYCAIHTSREIWGQGTLVTVSS
notes: as for B1
B15: TSLP-2 (VHH)
VHH: EVQLVESGGGLVQPGGSLRLSCAASGLTFSTTVMGWFRQAPGKEREWVATIAGDGSTFYADSVKGRFTISADNSKNTAYLQMNSLKPEDTAVYYCADINEDWGQGTLVTVSS
notes: as for B1
B16: TSLP-5 (VHH)
VHH: EVQLVESGGGLVQPGGSLRLSCAASGVTLDTDAMGWFRQAPGKEREFVAWINNRGTTDYADSVKGRFTISADNSKNTAYLQMNSLKPEDTAVYYCARVSQWLLGGPANWGQGTLVTVSS
notes: as for B1
B17: TSLP-13 (VHH)
VHH: EVQLVESGGGLVQPGGSLRLSCAASGFTFDDNDMGWFRQAPGKEREFVGAISWSGNTTYYKYYADSVKGRFTISADNSKNTAYLQMNSLKPEDTAVYYCSNQYGWGQGTLVTVSS
notes: as for B1
B18: TSLP-22 (VHH)
VHH: EVQLVESGGGLVQPGGSLRLSCAASGRTFRSYVMGWFRQAPGKERELVSAIFSDGSTLYADSVKGRFTISADNSKNTAYLQMNSLKPEDTAVYYCAREDSSSGWFDYWGQGTLVTVSS
notes: as for B1
B19: TSLP-26 (VHH)
VHH: B18 VHH with R27L, R30S, V33I, E98D, S100Y, S101G, S102G, G103N, W104F
notes: as for B1
B20: TSLP-17 (VHH)
VHH: EVQLVESGGGLVQPGGSLRLSCAASGTTFEIYPMGWFRQAPGKEREFVAAIHWNSGITYYADSVKGRFTISADNSKNTAYLQMNSLKPEDTAVYYCARDVFYFDSSGYSLWGQGTLVTVSS
notes: as for B1
B21: TSLP-32 (VHH)
VHH: EVQLVESGGGLVQPGGSLRLSCAASGNSFNNYVMGWFRQAPGKEREMVSAIFSDGSTYYADSVKGRFTISADNSKNTAYLQMNSLKPEDTAVYYCVRDSGSVSGQTFDSWGQGTLVTVSS
notes: as for B1
B22: TSLP-20 (VHH)
VHH: EVQLVESGGGLVQPGGSLRLSCAASGFKLGYYAMGWFRQAPGKEREGVATIAGGTTYYADSVKGRFTISADNSKNTAYLQMNSLKPEDTAVYYCAAIGWRWGQGTLVTVSS
notes: as for B1
B23: IL1RL2-153 (antibody, V domains shown)
VH: EVQLLESGGGLVQPGGSLRLSCAASGFIFQWYDMGWVRQAPGKGLEWVSSIRGSSSSTYYADSVKGRFTISRDNSKNTLYLQMNSLRAEDTAVYYCARDLGDYWGQGTLVTVSS
VL: DIQMTQSPSSLSASVGDRVTITCRASQNIRSYLNWYQQKPGKAPKLLIYDDIDRPSGVPSRFSGSGSGTDFTLTISSLQPEDFATYYCQTWGPGIRVFGQGTKVEIK
notes: IgG2

How the values were obtained:
[1] = target: T2, TSLP (UniProt Q969D9 29-159); test: SPR, Carterra LSA, antibody amine-coupled, 1:1 model
T2 construct: Soluble analyte of the SPR assay
Method: SPR experiments were performed on a Carterra LSA SPR biosensor equipped with a HC30M chip at 25° C. in HBS-TE. Antibodies were diluted to 10 μg/mL and amine-coupled to the sensor chip by EDC/NHS activation, followed by ethanolamine HCl quenching. Increasing concentrations of analyte were flowed over the sensor chip in HBS-TE with 0.5 mg/mL BSA with 5-minute association and 15-minute dissociation. Following each injection cycle the surface was regenerated with 2× 30-second injections of IgG elution buffer (Thermo). Data were analyzed in Carterra's Kinetics Tool software with 1:1 binding model.

[2] = target: T3, TSLP on over-expressing Expi293 cells (UniProt Q969D9 29-159, limits assumed); test: flow cytometry titration on TSLP over-expressing Expi293 cells
T3 construct: whole, on cells; Target of the flow cytometry assay; also called cytokine over-expressing Expi293 cells
Method: (§1) All incubations and washes were in buffer containing PBS+1% BSA. MFI Ratio is defined by the mean fluorescence intensity (MFI) of the cytokine over-expressing Expi293 cell over the Expi293 parent cell. […] EC50 was calculated in GraphPad Prism.

[3] = target: T3, TSLP on over-expressing Expi293 cells; test: flow cytometry, 100 nM, TSLP over-expressing Expi293 over parent cells
Method: as §1

[4] = target: T1, IL1RL2 over-expressed on Expi293 cells; test: flow cytometry titration on over-expressing Expi293 cells
Method: as §1

[5] = target: T1, IL1RL2 over-expressed on Expi293 cells; test: flow cytometry, over-expressing Expi293 vs parent cells, 100 nM antibody;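 further: ratio is mean fluorescence intensity on over-expressing Expi293 cells divided by that measured on parental Expi293 cells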
Method: as §1

Binder | Kd [1] [nM] | koff [1] [s⁻¹] | kon [1] [M⁻¹ s⁻¹] | EC50 [2] [nM] | 100 nM (MFI Ratio) [3] [MFI ratio] | EC50 [4] [nM] | 100 nM FACS (MFI Ratio) [5]
B1 | 3.39 | 0.000487 | 144000 | 0.11 | 100 |  | 
B2 | 19.1 | 0.00114 | 59900 | 0.37 | 80.1 |  | 
B3 | 19.1 | 0.00131 | 68500 | 0.12 | 226 |  | 
B4 | 20 | 0.00145 | 72600 | 0.28 | 108 |  | 
B5 | 13.9 | 0.00137 | 98700 | 0.5 | 76.2 |  | 
B6 | 31.4 | 0.0016 | 51000 | 0.18 | 20.3 |  | 
B7 | 63.2 | 0.000996 | 15800 | 0.43 | 105 |  | 
B8 | 10.1 | 0.000487 | 48300 | 0.31 | 89.3 |  | 
B9 | 19.3 | 0.000493 | 25600 | 0.14 | 288 |  | 
B10 | 11.9 | 0.00143 | 120000 | 0.58 | 10 |  | 
B11 | 7.14 | 0.000542 | 75900 | 0.18 | 157 |  | 
B12 | 8.43 | 0.000805 | 95500 | 1.4 | 67.8 |  | 
B13 | 2.96 | 0.00175 | 589000 | 1.35 | 37.5 |  | 
B14 | 31 | 0.00151 | 48600 | 0.73 | 8.6 |  | 
B15 | 6.49 | 0.0018 | 278000 | 0.43 | 218 |  | 
B16 | 24.5 | 0.000759 | 31000 | 0.73 | 149 |  | 
B17 | 41.3 | 0.0013 | 31600 | 0.37 | 120 |  | 
B18 | 12.1 | 0.00106 | 88200 | 0.66 | 90.4 |  | 
B19 | 5.09 | 0.000228 | 44700 | 3.37 | 313 |  | 
B20 | 11.2 | 0.00042 | 37500 | 0.12 | 154 |  | 
B21 | 7.24 | 0.00121 | 167000 | 0.45 | 195 |  | 
B22 | 27.7 | 0.00209 | 75300 |  | 2.5 |  | 
B23 |  |  |  |  |  | 445 | 350
